Assay results: US20160304622A1 (GENEFRONTIER, published 2016)

How the values were obtained:
[1] = target: T1, peptide #36 of the human ADAMTS4 peptide array (GGKYCEGRRTRF) (human); test: peptide array, HRP-labeled antibody
T1 construct: Immobilized on a peptide array
T1 peptide: GGKYCEGRRTRF
Source text: (§1) To be specific, as shown in the following Table, a peptide array consisting of peptides having the residue number of 12 amino acid residues and an offset of 3 amino acid residues was produced relative to a sequence covering the thrombospondin domain of human ADAMTS4.

[2] = target: T2, peptide #37 of the human ADAMTS4 peptide array (GKYCEGRRTRFR) (human); test: peptide array, HRP-labeled antibody
T2 construct: Immobilized on a peptide array
T2 peptide: GKYCEGRRTRFR
Source text: as §1

[3] = target: T3, peptide #38 of the human ADAMTS4 peptide array (KYCEGRRTRFRS) (human); test: peptide array, HRP-labeled antibody
T3 construct: Immobilized on a peptide array
T3 peptide: KYCEGRRTRFRS
Source text: as §1

[4] = target: T4, peptide #39 of the human ADAMTS4 peptide array (YCEGRRTRFRSC) (human); test: peptide array, HRP-labeled antibody
T4 construct: Immobilized on a peptide array
T4 peptide: YCEGRRTRFRSC
Source text: as §1

[5] = target: T5, recombinant human ADAMTS4 (residues Phe213-Cys685, C-terminal Strep-tag II) (human, UniProt O75173 213-685); test: SPR (BIAcore 3000), ADAMTS amine-coupled on CM5 chip, IgG1 injected
T5 construct: Made in HEK293T cells; metalloproteinase, disintegrin, thrombospondin and cysteine-rich domains; also called recombinant ADAMTS4; not shown: Strep-tag II at the C-terminal
T5 sequence: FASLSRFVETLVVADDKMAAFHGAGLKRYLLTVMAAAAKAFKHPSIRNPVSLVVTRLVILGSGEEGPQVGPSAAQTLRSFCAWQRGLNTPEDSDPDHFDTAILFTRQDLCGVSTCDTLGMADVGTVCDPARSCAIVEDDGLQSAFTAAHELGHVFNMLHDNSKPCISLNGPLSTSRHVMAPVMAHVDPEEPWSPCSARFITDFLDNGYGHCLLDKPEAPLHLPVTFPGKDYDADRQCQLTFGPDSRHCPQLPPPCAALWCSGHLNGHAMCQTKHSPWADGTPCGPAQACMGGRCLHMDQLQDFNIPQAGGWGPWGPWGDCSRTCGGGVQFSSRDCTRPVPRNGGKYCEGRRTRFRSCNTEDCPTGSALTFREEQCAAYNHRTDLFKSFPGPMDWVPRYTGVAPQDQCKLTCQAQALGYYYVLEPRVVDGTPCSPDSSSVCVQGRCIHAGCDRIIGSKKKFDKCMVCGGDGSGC
Method: (§2) Surface plasma resonance interaction (BIAcore) analysis Recombinant ADAMTS species were covalently immobilized via amine coupling on CM5 sensor chip flow chambers (GE Healthcare Life Sciences, Buckinghamshire, UK). […] The KD (the affinity) was calculated from the determined Kₐ and Kd values.

[6] = target: T6, Recombinant ADAMTS5 protein containing the metalloproteinase, disintegrin and thrombospondin domains … (human, UniProt Q9UNA0 262-622); test: as above
T6 construct: Bought from R&D Systems
T6 sequence: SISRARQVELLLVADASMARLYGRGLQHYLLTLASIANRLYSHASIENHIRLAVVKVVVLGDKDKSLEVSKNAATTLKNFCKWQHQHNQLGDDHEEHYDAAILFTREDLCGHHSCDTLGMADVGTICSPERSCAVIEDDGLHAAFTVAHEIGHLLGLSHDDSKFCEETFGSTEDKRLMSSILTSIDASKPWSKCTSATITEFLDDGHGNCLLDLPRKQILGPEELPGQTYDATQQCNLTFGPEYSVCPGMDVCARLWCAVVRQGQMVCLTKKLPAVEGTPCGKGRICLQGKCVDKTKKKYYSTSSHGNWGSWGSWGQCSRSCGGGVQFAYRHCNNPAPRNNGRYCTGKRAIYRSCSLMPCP
Method: as §2

binding result [1]: binds
binding result [2]: binds
binding result [3]: binds
binding result [4]: binds
Kd [5]: 11.7 nM
Kd [6]: 1.46 nM
B1: human anti-ADAMTS antibody (IgG1; clone 237-53) (antibody, V domains shown)
VH: QVQLVQSGAEVKKPGSSVKVSCKASGGTFSSFAISWVRQAPGQGLEWMGGIFPIFGQANYAQKFQGRVTITADESTSTAYMELSSLRSEDTAVYYCARFSDWWEWQMDYWGQGTLVTVSS
VL: DIVMTQSPDSLAVSLGERATINCRSSQSILYSSNNNYLAWYQQKPGQPPKLLIHTASARESGVPDRFSGSGSGTDFTLTISSLQAEDVAVYYCQQYYSVSITFGQGTKVEIKR
notes: HRP-labeled in the peptide array
